Results on two molecules are retold here after PMC5440646, “T Cell Costimulation by CD6 Is Dependent on Bivalent Binding of a GADS/SLP-76 Complex” (Molecular and Cellular Biology, 2017).

Usually Kd stands for the concentration at which binding is half-saturated.

Where no end group is shown, it is not given here. [ ]: non-standard residue; d: D form. The star is where a group is joined. Biotin = O=C1N[C@H]2[C@H](CS[C@H]2CCCCC(=O)*)N1; pY = N[C@@H](Cc1ccc(OP(=O)(O)O)cc1)C(=O)O

Assay in all cases: SPR; biotinylated short peptides immobilised at ~25 response units on streptavidin-coated CM5 chips, BIAcore 3000; SH2 domains injected at 10 μl/min at 37°C; equilibrium binding, 1:1 Langmuir
Common to all, as to settings: both partners purified
A general note: In SPR one partner is held on a chip, and binding of the other changes the refractive index at the surface.

Assay [1] concerns the target T1, GADS SH2 domain, His-tagged (UniProt O75791 58-149).
T1 construct: GRB2-related adaptor downstream of Shc (GADS), SH2 domain; In the popinF vector, provided by the Oxford Protein Production Facility
T1 sequence (looked up): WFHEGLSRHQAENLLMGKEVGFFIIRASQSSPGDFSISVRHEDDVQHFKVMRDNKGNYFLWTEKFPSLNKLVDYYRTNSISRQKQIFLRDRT

For assay [2], the target named is T2, GRB2 SH2 domain, His-tagged (UniProt P62993 60-152).
T2 construct: In the popinF vector

Assay [3] has as its target T3, TSAd SH2 domain, His-tagged (UniProt Q9NP31 95-186).
T3 construct: T cell-specific adaptor protein (TSAd, SH2D2A), SH2 domain; In the popinF vector

T3 sequence (Q9NP31 95-186): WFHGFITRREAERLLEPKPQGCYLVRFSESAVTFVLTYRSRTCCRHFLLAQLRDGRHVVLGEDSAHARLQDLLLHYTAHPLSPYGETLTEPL
T2 sequence (P62993 60-152): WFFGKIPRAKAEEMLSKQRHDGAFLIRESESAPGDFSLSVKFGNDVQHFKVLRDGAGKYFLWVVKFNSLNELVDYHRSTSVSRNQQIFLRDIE

B1: CD6 pY629 peptide (biotin-SSGEWpYQNFQP) (peptide)
peptide: Biotin-SSGEW[pY]QNFQP
notes: CD6, human, cytoplasmic region around Y629; also called phosphorylated CD6 Y629 peptide; source: synthetic peptide (Peptide Protein Research Ltd.)
B1: the Kd in assay [1] was in the range of 1 to 3 µM; in assay [2], 2 to 4 µM; in assay [3], 26 to 58 µM.

B2: CD28 pYMNM peptide (biotin-LLHSDpYMNMTP) (peptide)
peptide: Biotin-LLHSD[pY]MNMTP
notes: CD28-derived peptide containing the YXN motif; also called phosphorylated CD28-derived peptide; source: synthetic peptide (Peptide Protein Research Ltd.)
With B2, the Kd in assay [1] was 2 to 3 µM; in assay [2], 3 µM; in assay [3], 74 µM.
